Test results reported in patent US20240307507A1, “LACTOFERRIN COMPOSITIONS AND METHODS OF USE” (LACTEA THERAPEUTICS LLC, priority 2021, published 2024).

B1: API-E2: purified bovine lactoferrin from raw, untreated milk produced according to Example 1 (protein)
chain: APRKNVRWCTISQPEWFKCRRWQWRMKKLGAPSITCVRRAFALECIRAIAEKKADAVTLDGGMVFEAGRDPYKLRPVAAEIYGTKESPQTHYYAVAVVKKGSNFQLDQLQGRKSCHTGLGRSAGWIIPMGILRPYLSWTESLEPLQGAVAKFFSASCVPCIDRQAYPNLCQLCKGEGENQCACSSREPYFGYSGAFKCLQDGAGDVAFVKETTVFENLPEKADRDQYELLCLNNSRAPVDAFKECHLAQVPSHAVVARSVDGKEDLIWKLLSKAQEKFGKNKSRSFQLFGSPPGQRDLLFKDSALGFLRIPSKVDSALYLGSRYLTTLKNLRETAEEVKARYTRVVWCAVGPEEQKKCQQWSQQSGQNVTCATASTTDDCIVLVLKGEADALNLDGGYIYTAGKCGLVPVLAENRKSSKHSSLDCVLRPTEGYLAVAVVKKANEGLTWNSLKDKKSCHTAVDRTAGWNIPMGLIVNQTGSCAFDEFFSQSCAPGADPKSRLCALCAGDDQGLDKCVPNSKEKYYGYTGAFRCLAEDVGDVAFVKNDTVWENTNGESTADWAKNLNREDFRLLCLDGTRKPVTEAQSCHLAVAPNHAVVSRSDRAAHVKQVLLHQQALFGKNGKNCPDKFCLFKSETKNLLFNDNTECLAKLGGRPTYEEYLGTEYVTAIANLKKCSTSPLLEACAFLTR
B2: heat-treated API-E2 Lactoferrin: API-E2 Lactoferrin heated across a range of 50-100° C. (protein, UniProt P24627 20-708, looked up)
Lactotransferrin: B1 chain
modifications: heat-treated
B3: Lactoferrin (“Reagent”): purchased laboratory reagent grade Lactoferrin [Sigma Bovine Colostrum Lactoferrin] (protein, UniProt P24627 20-708, looked up)
Lactotransferrin: B1 chain

Assays:
[1] = test system: lactoperoxidase (LPO); test: Enzymatic colour assay for lactoperoxidase (LPO) activity; assay type: biochemical; settings: colorimetric peroxidase substrate turning blue
Excerpt: An enzymatic assay for lactoperoxidase (LPO) activity was developed utilizing a molecule which in the presence of peroxidase activity turns a blue color.

[2] = ELISA antibody binding of Lactoferrin; settings: same amount of protein by weight loaded
Method: Lactoferrin percentage can be assessed by an enzyme-linked immunosorbent assay (ELISA). In some instances, an ELISA can distinguish the percentage of Lactoferrin in a native protein conformation, such as by using an antibody that specifically binds the native protein conformation of Lactoferrin.
Lactoferrin purity was also assessed by ELISA.

[3] = test system: SARS-COV-2; test: SARS-COV-2 Cytopathic Effect (CPE) reduction assay in Vero E6 cells; assay type: cell-based; settings: Vero E6 cells, neutral red, three days post-infection
[4] = Differential Scanning Calorimetry (DSC) unfolding of apolactoferrin and hololactoferrin forms; assay type: physicochemical
Method: The assay was also performed with heat-treated API-E2 Lactoferrin. API-E2 Lactoferrin was heated across a range of 50-100° C.

[5] = DSC iron binding capability with excess iron chloride; settings: iron chloride in 1000× molar excess
Method: The DSC assay was further used to assess Lactoferrin bioactivity, specifically the iron binding capability of the API-E2 Lactoferrin. Iron chloride (FeC13) was added in 1000× molar excess to API-E2 Lactoferrin. In the presence of excess iron, the API-E2 lactoferrin will bind the iron to its open iron binding site.

[6] = test system: ECM of primary buccal cells; test: Lactoferrin ECM association by immunofluorescence, primary buccal cells; assay type: cell-based; settings: 100 ug/mL, 1 hr, 37 C
Method: Primary buccal cells were next cultured according to a standard protocol (e.g., see Russo et al. Cytotechnology. 2016 October; 68(5): 2105-2114; herein incorporated by reference for all purposes). […] Immunofluorescence imaging was performed as previously described.

[7] = test system: E. coli; test: Zone of inhibition test; assay type: cell-based
Method: A zone of inhibition test was performed to assess bioactivity of API-E2 Lactoferrin. A plate with E. coli was cultured with 100 μg/mL, 10 μg/mL, 1 μg/mL, and 0.1 μg/mL API-E2 Lactoferrin added to paper circles and allowed to diffuse out.

[8] = test system: Salivary bacteria (including Lactobacillus, Lactococcus, and Streptococcus mutans); test: Salivary bacteria acid production by pH testing; assay type: cell-based; settings: with sucrose, start pH 7, entire 6 hour period
Method: Salivary bacteria (including Lactobacillus, Lactococcus, and Streptococcus mutans) produce acid during growth. This acidification is strongly associated with tooth decay, particularly when it results in pH below 5.5, which is a clinically relevant threshold. A slurry of these bacteria were treated with sucrose to stimulate growth, as well as varying concentrations of API-E2 lactoferrin. Upon the addition of sucrose and API-E2 lactoferrin, the pH was adjusted to 7 through a titration and the change in pH was subsequently monitored over the next 6 hours.

| Molecule | LPO enzymatic activity in the sample [1] | increase in antibody binding relative to existing research standards [2] | EC50 [3] | Delta H, apolactoferrin peak ([4]; 10 mg/mL) | Delta H, hololactoferrin peak ([4]; 10 mg/mL) | % of Total, apolactoferrin ([4]; native sample without added iron) | available Apolactoferrin shifted to the Hololactoferrin form [5] | ECM association of Lactoferrin [6] | zone of inhibition ([7]; 0.1 μg/mL on paper circles) | zone of inhibition ([7]; 1 μg/mL on paper circles) | zone of inhibition ([7]; 10 ug/mL on paper circles) | zone of inhibition ([7]; 100 μg/mL on paper circles) | pH maintained over testing period ([8]; 1 mg/mL) | pH maintained over testing period ([8]; 10 mg/mL) | DSC apolactoferrin and hololactoferrin peaks detected ([4]; same conditions as API-E2) | estimated ratio of the apolactoferrin to hololactoferrin peak [4] | Tm, apolactoferrin peak ([4]; 10 mg/mL) | Tm, hololactoferrin peak ([4]; 10 mg/mL) |
| --- | --- | --- | --- | --- | --- | --- | --- | --- | --- | --- | --- | --- | --- | --- | --- | --- | --- | --- |
| B1 | neither detected | 30% | 90 nM | 111.4 ± 2.2 kcal/mol | 151.2 ± 1.72 kcal/mol | 91.26 +/− 1.39% ^ | 100% | strong binding along the ECM | No zone of inhibition | limited zone of inhibition | complete inhibition | complete inhibition | above 5.5 | above 5.5 |  |  |  |  |
| B2 |  |  |  |  |  |  |  |  |  |  |  |  |  |  | loss in both detectable peaks |  |  |  |
| B3 | does not result in a positive enzymatic reaction |  | 140 nM |  |  |  |  | only limited ECM association |  |  |  |  |  |  |  | nearly equal | 55 C | 85 C |
